Like-named read-outs stand apart in the source and are kept apart here. Values belong to the molecule of their own block, whether it stands above or below them.
Legend:
[1] = target: zinc uptake regulator (Zur) from Xanthomonas campestris pv. campestris (XcZur) (Xanthomonas campestris pv. campestris strain 8004); assay: AUC
[2] = target: zinc uptake regulator (Zur) from Xanthomonas campestris pv. campestris (XcZur) (Xanthomonas campestris pv. campestris strain 8004); assay: AUC; remark: listed apart in the source
[3] = target: T1, XcZur (Xanthomonas campestris pv. campestris …, UniProt Q4UWS5 1-172); assay: BLI
T1 sequence: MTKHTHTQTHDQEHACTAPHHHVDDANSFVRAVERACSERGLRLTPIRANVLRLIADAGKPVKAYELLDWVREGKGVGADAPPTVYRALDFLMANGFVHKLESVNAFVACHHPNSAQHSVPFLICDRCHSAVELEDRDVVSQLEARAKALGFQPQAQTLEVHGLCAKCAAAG

[4] = target: T1, XcZur; assay: EMSA
[5] = target: T1, XcZur; assay: EMSA; remark: listed apart in the source
[6] = target: the molecule itself; assay: crystal structure

percent as dimers [1]: 60.3%
percent as monomers [1]: 28.9%
percent as tetramers [1]: 4.9%
stoichiometry N [1]: 2
percent as dimers [2]: 32.9%
percent as monomers [2]: 60.5%
percent as trimers [2]: 5.8%
stoichiometry N [2]: 2
Molecule: zinc uptake regulator (Zur) from Xanthomonas campestris pv. campestris (XcZur) (natural protein)

B1: P0267-Biotin (dsDNA)
DNA 1: GGCGAGTTGTTATACAGTAACATTTCTAG
DNA 2: CTAGAAATGTTACTGTATAACAACTCGCC
Kd [3]: ~22 nM

B2: P2976 (dsDNA)
DNA 1: TTAGGGCCACGCGGTTGCGGAGACTATTACACCGGCGCGTGATGAGATCACATCACGTG
DNA 2: CACGTGATGTGATCTCATCACGCGCCGGTGTAATAGTCTCCGCAACCGCGTGGCCCTAA
binding result [4]: no binding

B3: P3788-Biotin (dsDNA)
DNA 1: ATTGATACGTTATCACATTGCGCCCCGCGCT
DNA 2: AGCGCGGGGCGCAATGTGATAACGTATCAAT
Kd [3]: ~63 nM

B4: EcZur-box (dsDNA)
DNA 1: AGAAGTGTGATATTATAACATTTCATGACTATG
DNA 2: CATAGTCATGAAATGTTATAATATCACACTTCT
binding result [5]: binds

B5: P2472-Biotin (dsDNA)
DNA 1: AAGTGTTATAAAGTAACACTAGTCGCG
DNA 2: CGCGACTAGTGTTACTTTATAACACTT
Kd [3]: ~38 nM

B6: N-terminal extension deleted XcZur (T17-G172) (domain or fragment)
chain: TAPHHHVDDANSFVRAVERACSERGLRLTPIRANVLRLIADAGKPVKAYELLDWVREGKGVGADAPPTVYRALDFLMANGFVHKLESVNAFVACHHPNSAQHSVPFLICDRCHSAVELEDRDVVSQLEARAKALGFQPQAQTLEVHGLCAKCAAAG
binding result [6]: binds
